Source: US20170274038A1

Target: angiotensin AT1 receptor (on human umbilical vein endothelial cells) (human) (UniProt P30556)
Assay: cell-based or functional assay

Chain of UniProt P30556 (P30556 whole entry): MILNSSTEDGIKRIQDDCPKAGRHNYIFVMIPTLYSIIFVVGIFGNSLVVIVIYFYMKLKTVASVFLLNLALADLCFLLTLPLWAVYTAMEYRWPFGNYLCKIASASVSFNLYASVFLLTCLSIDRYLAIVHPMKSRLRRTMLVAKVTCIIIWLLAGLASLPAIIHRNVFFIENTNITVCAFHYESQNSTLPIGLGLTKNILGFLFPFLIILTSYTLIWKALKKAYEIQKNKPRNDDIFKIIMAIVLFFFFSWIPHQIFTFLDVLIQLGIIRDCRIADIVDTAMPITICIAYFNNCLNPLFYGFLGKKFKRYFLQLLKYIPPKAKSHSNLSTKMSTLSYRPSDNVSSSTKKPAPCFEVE

release of PGE2 and PGI2 from HUVEC (effective concentration of DAA-I): 100 pM
Substance: des-aspartate-angiotensin I (from UniProt P01019 26-34) (peptide)
